From US7329737 (DYAX, dated 2008) come the findings set out here.

Numbering of substitutions follows the chain as printed.

First the molecules themselves.
B1: M0138-C09 (Fab, V domains shown)
VH: EVQLLESGGGLVQPGGSLRLSCAASGFTFSPYRMSWVRQAPGKGLEWVSVISPSGGITEYADSVKGRFTISRDNSKNTLYLQMNSLRAEDTAVYYCAKHERGSGYYVTPPAGAFDIWGQGTMVTVSS
VL: AQSELTQPASVAGSPGQSITISCTGTSSDVGLYNFVSWYQQHPGKAPKLMIYDVSRRPSGVSNRFSASKSGTRASLTVSGLQAEDEADYYCSSYAGSNNYVFGTGTKVTVLG
B2: M0136-E12 (Fab, V domains shown)
VH: EVQLLESGGGLVQPGGSLRLSCAASGFTFSNYSMQWVRQAPGKGLEWVSSIGPSGGRTWYADSVKGRFTISRDNSKNTLYLQMNSLRAEDTAVYYCARVGVWYGMDVWGQGTTVTVSS
VL: DIQMTQSPSSLSASVGDRVTITCRASHVINIDLGWYQQKPGKAPKLLIYGASHLQRGVPSRFSGSGSGTVFTLTISGLQPEDFATYYCLQDSFYPRTFGQGTRLEIKR
B3: M0131-F09 (Fab, V domains shown)
VH: B2 VH with N31H, S33V, S50G, R57S, W59T
VL: DIQMTQSPATLSLSPGERATLSCRASQSVSSYLAWYQQKPGQAPRLLIYDASNRATGIPARFSGSGSGTDFTLTISSLEPEDFAVYYCQQRSNWLWTFGQGTKVEIKR
B4: M0138-E02 (Fab, V domains shown)
VH: B2 VH with N31H, S33M, Q35H, S50G, R57K, W59P
VL: DIQMTQSPSSVSASVGDRVTITCRASQGISSWLVWYQQKPGKAPKLLIYAASSLQSGVPSRFSGSGSGTDFTLTISSLQPEDFATYYCQQAKTFPLTFGGGTKVEIKR
B5: M0134-B03 (Fab, V domains shown)
VH: EVQLLESGGGLVQPGGSLRLSCAASGFTFSHYSMFWVRQAPGKGLEWVSSIYPSGGQTDYADSVKGRFTISRDNSKNTLYLQMNSLRAEDTAVYYCARRGLLWSFDSWGQGTLVTVSS
VL: AQSALTQPPSASGSPGQSVTISCTGTSSDVGAYNYVSWYQQHPGKAPKLIIYEVNKRPSGVPDRFSASKSGNTASLTVSGLQAEDEADYYCNSYAGSNSLIFGGGTKLTVLG
B6: M0136-D07 (Fab, V domains shown)
VH: EVQLLESGGGLVQPGGSLRLSCAASGFTFSPYKMGWVRQAPGKGLEWVSSIYPSGGVTTYADSVKGRFTISRDNSKNTLYLQMNSLRAEDTAVYYCTKNINLRYDILTGYFDIWGQGTTVTVSS
VL: DIQMTQSPSSVSASVGDRVTITCRASQDIASWLAWYQQKPEKVPKLLIYAASSLQSGVPSRFSGSGSGTDFTLTINSLQPEDFATYYCQQANSFPFTFGPGTKVDFKR
B7: M0133-E02 (Fab, V domains shown)
VH: EVQLLESGGGLVQPGGSLRLSCAASGFTFSWYTMTWVRQAPGKGLEWVSSIYPSGGHTSYADSVKGRFTISRDNSKNTLYLQMNSLRAEDTAVYYCAKDTRVGPWLVRAPLDYWGQGTLVTVSS
VL: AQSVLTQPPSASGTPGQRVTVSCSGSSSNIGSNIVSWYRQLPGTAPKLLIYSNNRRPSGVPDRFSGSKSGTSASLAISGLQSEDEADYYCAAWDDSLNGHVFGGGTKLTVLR
B8: M0138-G11 (Fab, V domains shown)
VH: B7 VH with L79F
VL: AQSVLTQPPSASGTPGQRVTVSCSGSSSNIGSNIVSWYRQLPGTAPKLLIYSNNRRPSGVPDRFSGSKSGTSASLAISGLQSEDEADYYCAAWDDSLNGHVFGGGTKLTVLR
B9: M0110-F08 (Fab, V domains shown)
VH: EVQLLESGGGLVQPGGSLRLSCAASGFTFSNYVMYWVRQAPGKGLEWVSGIGPSGGFTTYADSVKGRFTISRDNSKNTLYLQMNSLRAEDTAVYYCTRDRYFGSGYYMAAYYYYGMDVWGQGTTVTVSS
VL: DIQMTQSPGTLSLSPGERATLSCRASQSVVSNFLAWYQQKPGQAPRLLIYGASSRATGIPDRFSGSGSGTDFILTISRLEPEDFAVYYCQQYGSSPYSFGQGTKLEIKR
B10: M0111-D11 (Fab, V domains shown)
VH: EVQLLESGGGLVQPGGSLRLSCAASGFTFSWYAMMWVRQAPGKGLEWVSSIWPSGGHTKYADSVKGRFTISRDNSKNTLYLQMNSLRAEDTAVYYCATDQGYFWGQGTLVTVSS
VL: DIQMTQSPATLSLSPGDRATLSCRASQRVSSTFLAWYQQRPGQAPRLVIFGTSSRATGIPDRFSGSGSGTDFTLTISRLEPEDFAVYYCHQYGSSPRTFGQGTKVEIKR
B11: M0106-G12 (Fab, V domains shown)
VH: EVQLLESGGGLVQPGGSLRLSCAASGFTFSWYRMHWVRQAPGKGLEWVSSIWPSGGKTHYADSVKGRFTISRDNSKNTLYLQMNSLRAEDTAVYYCARALQYGSGSYFYAPKSYYYYGMDVWGQGTTVTVSS
VL: DIQMTQSPSFVSASIGDRVTITCRASQSIGTLLNWYQHKPGTVPSLLIYGNLRGGVPARFSGSGSGTDFTLTISSLQPEDFATYYCQHDTFGGGTKVDIKR
B12: M0097-F03 (Fab, V domains shown)
VH: EVQLLESGGGLVQPGGSLRLSCAASGFTFSNYLMYWVRQAPGKGLEWVSSIRPSGGNTLYADSVKGRFTISRDNSKNTLYLQMNSLRAEDTAVYYCRRGILTGYYWGYYYYMDVWGKGTTVTVSS
VL: DIQMTQSPATLSVSPGGRATLSCRASQSVRKNVAWYQQKPGQPPRLLIYGASTRATGVPARFSGSGSGTEFTLTISRMQPEDFVVYHCQQYSSWPAFGQGTMVEINR
B13: M0098-G05 (Fab, V domains shown)
VH: EVQLLESGGGLVQPGGSLRLSCAASGFTFSKYKMGWVRQAPGKGLEWVSYIRPSGGMTFYADSVKGRFTISRDNSKNTLYLQMNSLRAEDTAVYYCTREHYQASYSSSAWFRMVPAGAFDIWGQGTMVTVSS
VL: DIQMTQSPSSLSASVGDRVTITCRASQTISRYLNWYQQKPGTAPKLLIYAASSLQSGVPSRFSGDGSGTDFTLTISSLQPEDFGIYFCQQSYSAPRTFGQGTKVEIKR
B14: M0139-C02 (Fab, V domains shown)
VH: B13 VH with K31Y, G35H, Y50V, R52Y, M57K, F59T
VL: DIQMTQSPSSLSASVGDRVTITCRASQGIRRAWYQQKPGKPPKLLINDASSLESGVPSRFSGSGSGTDFTLTISSLQPEDFATYYCQQSYSTPPWTFGQGTKVEIKR
B15: M0102-E09 (Fab, V domains shown)
VH: EVQLLESGGGLVQPGGSLRLSCAASGFTFSLYLMEWVRQAPGKGLEWVSSIGSSGGATWYADSVKGRFTISRDNSKNTLYLQMNSLRAEDTAMYYCATDTSRVAGTRLRNYYYYYGMDVWGQGTTVTVSS
VL: DIQMTQSPDSLSLSPGERATLSCRASQSISSSYLAWYQQTPGQAPRLLIYHASSRATGVPARFSGSGSGTDFTLTISSLEPEDFAVYYCQQRNNWPPSFTFGGGTKVETKR

The target in one assay is T1, hK1 (human tissue kallikrein 1), recombinant (human, UniProt P06870 25-262).
T1 construct: Expressed in P. pastoris from KLK1 cDNA and purified; enzymatically active; also called KLK1; Recombinant (Pichia) Kallikrein
In words: SPR. Background: SPR reads the build-up and loss of mass on a sensor chip optically.
Turning to B1, the Kd is 8.78 nM, the koff was 0.00153 s⁻¹ and the kon is 175000 M⁻¹ s⁻¹.
With B2, the Kd worked out at 2.23 nM, the off-rate constant (koff) worked out at 0.00107 s⁻¹ and the kon is 481000 M⁻¹ s⁻¹.
As to B3, the Kd was 2.36 nM, the koff is 0.000734 s⁻¹ and the kon amounted to 311000 M⁻¹ s⁻¹.
Consider B4, for which the Kd came out at 2.26 nM, the koff stood at 0.00138 s⁻¹ and the kon came to 614000 M⁻¹ s⁻¹.
In the case of B5, the Kd came out at 2.41 nM, the koff was 0.00096 s⁻¹ and the kon was 399000 M⁻¹ s⁻¹.
For the molecule B6, the Kd worked out at 2.26 nM, the koff was determined as 0.000397 s⁻¹ and the kon turned out to be 176000 M⁻¹ s⁻¹.
The corresponding values for B7 are 6.42 nM, 0.00146 s⁻¹ and 227000 M⁻¹ s⁻¹.
The like results for B8 were, in that order, 6.19 nM, 0.00161 s⁻¹ and 260000 M⁻¹ s⁻¹.

For another assay, the target named is T1, hK1 (human tissue kallikrein 1), …. Description: cell-based or functional assay.
As to B9, the “IC50 (nM), inhibition of hK1 enzyme activity” value came to 44 nM.
As to B10, the “IC50 (nM), inhibition of hK1 enzyme activity” value turned out to be 160 nM.
For the molecule B11, the “IC50 (nM), inhibition of hK1 hydrolysis of Pro-Phe-Arg-AMC” value worked out at 5.1 nM.
Turning to B1, the “IC50 (nM), inhibition of hK1 hydrolysis of Pro-Phe-Arg-AMC” value was 10.9 nM.
On the same count and under the same terms, the figure for B12 is 1.1 nM; for B13 it is 4 nM.
Still for that read-out and setting: the figure for B14 is 1 nM; for B15 it is 0.89 nM; for B7 it is 2.4 nM.
Consider B8, for which the “IC50 (nM), inhibition of hK1 enzyme activity” value stood at 28 nM.

In general, Kd refers to a measure of binding affinity in units of concentration. As a reminder, the koff is the rate constant with which the complex falls apart. Broadly, the kon is a measure of how fast the partners come together.
